The values that follow come from patent US20210253716A1.

Assay [1] addresses full length human ACVR1 (R206H) on HEK293/BRE-luc/hACVR1-R206H-clone H2 cells (human) (UniProt Q04771). As to the kind of experiment: flow cytometry, secondary antibody alone (66.6 nM run), HEK293/hACVR1-R206H cells. In general terms: Flow cytometry measures light scatter and fluorescence of single cells or particles in a stream.
Assay [2] shares this target. The assay is described as follows: flow cytometry, secondary antibody alone (70 nM run), HEK293/hACVR1-R206H cells.
Assay [3] addresses full length wild type human ACVR1 on HEK293/BRE-luc/hACVR1-wild type cells (human) (UniProt Q04771). As to the kind of experiment: flow cytometry, secondary antibody alone (66.6 nM run), HEK293/hACVR1-wt cells.
Assay [4] concerns the target full length human ACVR1 (R206H) on HEK293/BRE-luc/hACVR1-R206H-clone H2 cells (human) (UniProt Q04771). The assay is described as follows: cell-based or functional assay.
The target in assay [5] is human ACVR1 extracellular domain expressed with a C-terminal myc-myc-hexahistidine tag (human). The assay is described as follows: SPR (Biacore), mAb captured, 25 C. (In general: Surface plasmon resonance follows binding to a sensor surface in real time, without labels.)
In assay [6] the target is human ACVR1 extracellular domain expressed with a C-terminal mouse IgG2a Fc tag (human). The assay is described as follows: SPR (Biacore), mAb captured, 25 C.
For assay [7], the target named is mouse ACVR1 extracellular domain expressed with a C-terminal myc-myc-hexahistidine tag (mouse). As to the kind of experiment: SPR (Biacore), mAb captured, 25 C.
Assay [8] deals with full length human ACVR1 (R206H) on HEK293/BRE-luc/hACVR1-R206H-clone H2 cells (human) (UniProt Q04771). The assay is described as follows: flow cytometry, 66.6 nM antibody, HEK293/hACVR1-R206H cells.
Assay [9] addresses full length wild type human ACVR1 on HEK293/BRE-luc/hACVR1-wild type cells (human) (UniProt Q04771). As to the kind of experiment: flow cytometry, 66.6 nM antibody, HEK293/hACVR1-wt cells.
Assay [10] deals with full length human ACVR1 (R206H) on HEK293/BRE-luc/hACVR1-R206H-clone H2 cells (human) (UniProt Q04771). As to the kind of experiment: flow cytometry, 70 nM antibody, HEK293/hACVR1-R206H cells.
Assay [11] concerns the target human ACVR1 extracellular domain expressed with a C-terminal myc-myc-hexahistidine tag (human). The assay is described as follows: SPR (Biacore), mAb captured, 37 C.
Assay [12] has as its target human ACVR1 extracellular domain expressed with a C-terminal mouse IgG2a Fc tag (human). The assay is described as follows: SPR (Biacore), mAb captured, 37 C.
Assay [13] addresses mouse ACVR1 extracellular domain expressed with a C-terminal myc-myc-hexahistidine tag (mouse). As to the kind of experiment: SPR (Biacore), mAb captured, 37 C.

Chain of full length human ACVR1 (R206H) on HEK293/BRE-luc/hACVR1-R206H-clone H2 cells (human) (Q04771 21-509 R206H): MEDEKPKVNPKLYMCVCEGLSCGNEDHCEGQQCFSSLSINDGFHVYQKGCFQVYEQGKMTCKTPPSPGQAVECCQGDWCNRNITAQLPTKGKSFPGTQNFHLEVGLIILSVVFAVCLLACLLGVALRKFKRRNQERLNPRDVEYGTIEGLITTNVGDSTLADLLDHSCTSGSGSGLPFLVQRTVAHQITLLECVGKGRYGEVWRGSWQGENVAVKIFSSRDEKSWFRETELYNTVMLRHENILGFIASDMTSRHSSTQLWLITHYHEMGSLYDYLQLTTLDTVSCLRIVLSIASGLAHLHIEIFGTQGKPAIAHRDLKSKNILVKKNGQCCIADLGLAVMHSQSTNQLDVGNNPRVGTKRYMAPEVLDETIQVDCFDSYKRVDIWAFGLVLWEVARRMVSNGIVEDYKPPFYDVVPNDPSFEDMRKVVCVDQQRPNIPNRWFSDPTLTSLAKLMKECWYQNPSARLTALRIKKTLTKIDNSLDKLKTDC
Chain of mouse ACVR1 extracellular domain expressed with a C-terminal myc-myc-hexahistidine tag (mouse) (chain, as listed by the source limits assumed): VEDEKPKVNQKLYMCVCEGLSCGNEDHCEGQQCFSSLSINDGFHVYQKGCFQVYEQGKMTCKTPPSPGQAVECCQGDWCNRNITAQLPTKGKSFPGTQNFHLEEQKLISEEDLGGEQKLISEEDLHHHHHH
Chain of human ACVR1 extracellular domain expressed with a C-terminal myc-myc-hexahistidine tag (human) (chain, as listed by the source limits assumed): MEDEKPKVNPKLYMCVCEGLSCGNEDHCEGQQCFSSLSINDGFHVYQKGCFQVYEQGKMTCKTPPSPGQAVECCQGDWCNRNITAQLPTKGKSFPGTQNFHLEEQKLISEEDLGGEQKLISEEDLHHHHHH
Chain of human ACVR1 extracellular domain expressed with a C-terminal mouse IgG2a Fc tag (human) (chain, as listed by the source limits assumed): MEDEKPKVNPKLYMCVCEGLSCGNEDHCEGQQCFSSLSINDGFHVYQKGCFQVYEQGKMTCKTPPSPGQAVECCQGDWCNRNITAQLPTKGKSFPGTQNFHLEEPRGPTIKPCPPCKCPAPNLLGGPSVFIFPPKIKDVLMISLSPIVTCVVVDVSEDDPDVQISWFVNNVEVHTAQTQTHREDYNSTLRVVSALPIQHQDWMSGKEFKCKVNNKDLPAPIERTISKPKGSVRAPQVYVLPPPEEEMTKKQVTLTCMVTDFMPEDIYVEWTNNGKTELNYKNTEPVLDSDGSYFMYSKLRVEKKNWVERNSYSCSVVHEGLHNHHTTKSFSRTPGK
Chain of full length wild type human ACVR1 on HEK293/BRE-luc/hACVR1-wild type cells (human) (Q04771 21-509): as the sequence (Q04771 21-509 R206H) above, with H186R counted along it

Take “Alexa Fluor-647 conjugated secondary antibody (Jackson ImmunoResearch, anti-human #109-607-003), alone”: the MFI - Normalized to Unstained Control in [1], in [2] and in assay [3] was 1 fold throughout.
For “human Bone Morphogenetic Protein 7 (R&D System 354-BP/C) (from UniProt P18075 293-431) (ligand)”, in assay [4], the EC50 [M], BRE-luc reporter activation by ligand (run with 2 nM hBMP7) was 1.22e-09 M and the EC50 [M], BRE-luc reporter activation by ligand (run with 3 nM hBMP7) came out at 2.97e-10 M.
Turning to “hIgG4 isotype control antibody (REGN1945)”, the 900 nM or 100 nM Ag Bound (RU) was 1 RU in assay [5], -2 RU in assay [7], 0 RU in assay [11] and 0 RU in assay [13]. Also, the 100 nM Ag Bound (RU) in assay [6] is -2 RU; in assay [12], -1 RU. In addition, the figures for the MFI - Normalized to Unstained Control in assay [8], in assay [9] and in [10] were 1 fold, 3 fold and 3 fold, respectively.
“human Activin A (R&D System 338-AC) (from UniProt P08476 311-426) (ligand)” came in with an EC50 [M], BRE-luc reporter activation by ligand in assay [4] of 3.33e-10 M.
